± gives the uncertainty stated by the source.
B1: Peripheral plasma membrane protein CASK, residues 488 to 569; numbered along this chain, O14936 (parent)
chain: VRLVQFQKNTDEPMGITLKMNELNHCIVARIMHGGMIHRQGTLHVGDEIREINGISVANQTVEQLQKMLREMRGSITFKIVP

Variants of: B1
Assay: abundance fitness (aPCA) (normalised: wild type 0, dead -1); higher = more abundant; growth selection in yeast, the domain comes from the species named
Conditions: Homo sapiens

Variant	abundance fitness
VRLVQFQKNTDEPMGITLKRNELNHCIVARIMHGGMIHRQGTLHVGDEIREINGISVANQTVEQLQKMLREMRGSITFKIVP [M20R]	-0.034 ± 0.024
VRLVQFQKNTDEPMGITLKSNELNHCIVARIMHGGMIHRQGTLHVGDEIREINGISVANQTVEQLQKMLREMRGSITFKIVP [M20S]	-0.154 ± 0.033
VRLVQFQKNTDEPMGITLKTNELNHCIVARIMHGGMIHRQGTLHVGDEIREINGISVANQTVEQLQKMLREMRGSITFKIVP [M20T]	-0.088 ± 0.04
VRLVQFQKNTDEPMGITLKVNELNHCIVARIMHGGMIHRQGTLHVGDEIREINGISVANQTVEQLQKMLREMRGSITFKIVP [M20V]	-0.046 ± 0.03
VRLVQFQKNTDEPMGITLKWNELNHCIVARIMHGGMIHRQGTLHVGDEIREINGISVANQTVEQLQKMLREMRGSITFKIVP [M20W]	-0.044 ± 0.032
VRLVQFQKNTDEPMGITLKYNELNHCIVARIMHGGMIHRQGTLHVGDEIREINGISVANQTVEQLQKMLREMRGSITFKIVP [M20Y]	-0.01 ± 0.066
VRLVQFQKNTDEPMGITLKMCELNHCIVARIMHGGMIHRQGTLHVGDEIREINGISVANQTVEQLQKMLREMRGSITFKIVP [N21C]	-0.201 ± 0.042
VRLVQFQKNTDEPMGITLKMEELNHCIVARIMHGGMIHRQGTLHVGDEIREINGISVANQTVEQLQKMLREMRGSITFKIVP [N21E]	-0.136 ± 0.032
VRLVQFQKNTDEPMGITLKMFELNHCIVARIMHGGMIHRQGTLHVGDEIREINGISVANQTVEQLQKMLREMRGSITFKIVP [N21F]	-0.415 ± 0.05
VRLVQFQKNTDEPMGITLKMGELNHCIVARIMHGGMIHRQGTLHVGDEIREINGISVANQTVEQLQKMLREMRGSITFKIVP [N21G]	-0.186 ± 0.026
VRLVQFQKNTDEPMGITLKMHELNHCIVARIMHGGMIHRQGTLHVGDEIREINGISVANQTVEQLQKMLREMRGSITFKIVP [N21H]	-0.25 ± 0.038
VRLVQFQKNTDEPMGITLKMIELNHCIVARIMHGGMIHRQGTLHVGDEIREINGISVANQTVEQLQKMLREMRGSITFKIVP [N21I]	-0.201 ± 0.041
VRLVQFQKNTDEPMGITLKMKELNHCIVARIMHGGMIHRQGTLHVGDEIREINGISVANQTVEQLQKMLREMRGSITFKIVP [N21K]	-0.186 ± 0.031
VRLVQFQKNTDEPMGITLKMLELNHCIVARIMHGGMIHRQGTLHVGDEIREINGISVANQTVEQLQKMLREMRGSITFKIVP [N21L]	-0.228 ± 0.025
VRLVQFQKNTDEPMGITLKMMELNHCIVARIMHGGMIHRQGTLHVGDEIREINGISVANQTVEQLQKMLREMRGSITFKIVP [N21M]	-0.258 ± 0.033
VRLVQFQKNTDEPMGITLKMPELNHCIVARIMHGGMIHRQGTLHVGDEIREINGISVANQTVEQLQKMLREMRGSITFKIVP [N21P]	-0.33 ± 0.031
VRLVQFQKNTDEPMGITLKMQELNHCIVARIMHGGMIHRQGTLHVGDEIREINGISVANQTVEQLQKMLREMRGSITFKIVP [N21Q]	-0.226 ± 0.034
VRLVQFQKNTDEPMGITLKMRELNHCIVARIMHGGMIHRQGTLHVGDEIREINGISVANQTVEQLQKMLREMRGSITFKIVP [N21R]	-0.268 ± 0.025
VRLVQFQKNTDEPMGITLKMSELNHCIVARIMHGGMIHRQGTLHVGDEIREINGISVANQTVEQLQKMLREMRGSITFKIVP [N21S]	-0.045 ± 0.024
VRLVQFQKNTDEPMGITLKMTELNHCIVARIMHGGMIHRQGTLHVGDEIREINGISVANQTVEQLQKMLREMRGSITFKIVP [N21T]	-0.041 ± 0.027
VRLVQFQKNTDEPMGITLKMVELNHCIVARIMHGGMIHRQGTLHVGDEIREINGISVANQTVEQLQKMLREMRGSITFKIVP [N21V]	-0.145 ± 0.028
VRLVQFQKNTDEPMGITLKMWELNHCIVARIMHGGMIHRQGTLHVGDEIREINGISVANQTVEQLQKMLREMRGSITFKIVP [N21W]	-0.6 ± 0.044
VRLVQFQKNTDEPMGITLKMYELNHCIVARIMHGGMIHRQGTLHVGDEIREINGISVANQTVEQLQKMLREMRGSITFKIVP [N21Y]	-0.282 ± 0.041

Variant	abundance fitness
VRLVQFQKNTDEPMGITLKMNCLNHCIVARIMHGGMIHRQGTLHVGDEIREINGISVANQTVEQLQKMLREMRGSITFKIVP [E22C]	-0.089 ± 0.045
VRLVQFQKNTDEPMGITLKMNDLNHCIVARIMHGGMIHRQGTLHVGDEIREINGISVANQTVEQLQKMLREMRGSITFKIVP [E22D]	0.031 ± 0.036
VRLVQFQKNTDEPMGITLKMNFLNHCIVARIMHGGMIHRQGTLHVGDEIREINGISVANQTVEQLQKMLREMRGSITFKIVP [E22F]	-0.277 ± 0.074
VRLVQFQKNTDEPMGITLKMNGLNHCIVARIMHGGMIHRQGTLHVGDEIREINGISVANQTVEQLQKMLREMRGSITFKIVP [E22G]	0.022 ± 0.023
VRLVQFQKNTDEPMGITLKMNHLNHCIVARIMHGGMIHRQGTLHVGDEIREINGISVANQTVEQLQKMLREMRGSITFKIVP [E22H]	-0.037 ± 0.05
VRLVQFQKNTDEPMGITLKMNILNHCIVARIMHGGMIHRQGTLHVGDEIREINGISVANQTVEQLQKMLREMRGSITFKIVP [E22I]	-0.185 ± 0.067
VRLVQFQKNTDEPMGITLKMNKLNHCIVARIMHGGMIHRQGTLHVGDEIREINGISVANQTVEQLQKMLREMRGSITFKIVP [E22K]	-0.004 ± 0.042
VRLVQFQKNTDEPMGITLKMNLLNHCIVARIMHGGMIHRQGTLHVGDEIREINGISVANQTVEQLQKMLREMRGSITFKIVP [E22L]	-0.135 ± 0.032
VRLVQFQKNTDEPMGITLKMNMLNHCIVARIMHGGMIHRQGTLHVGDEIREINGISVANQTVEQLQKMLREMRGSITFKIVP [E22M]	-0.078 ± 0.041
VRLVQFQKNTDEPMGITLKMNNLNHCIVARIMHGGMIHRQGTLHVGDEIREINGISVANQTVEQLQKMLREMRGSITFKIVP [E22N]	-0.075 ± 0.071
VRLVQFQKNTDEPMGITLKMNPLNHCIVARIMHGGMIHRQGTLHVGDEIREINGISVANQTVEQLQKMLREMRGSITFKIVP [E22P]	-0.03 ± 0.04
VRLVQFQKNTDEPMGITLKMNQLNHCIVARIMHGGMIHRQGTLHVGDEIREINGISVANQTVEQLQKMLREMRGSITFKIVP [E22Q]	0.008 ± 0.039
VRLVQFQKNTDEPMGITLKMNRLNHCIVARIMHGGMIHRQGTLHVGDEIREINGISVANQTVEQLQKMLREMRGSITFKIVP [E22R]	0.001 ± 0.025
VRLVQFQKNTDEPMGITLKMNSLNHCIVARIMHGGMIHRQGTLHVGDEIREINGISVANQTVEQLQKMLREMRGSITFKIVP [E22S]	-0.022 ± 0.031
VRLVQFQKNTDEPMGITLKMNTLNHCIVARIMHGGMIHRQGTLHVGDEIREINGISVANQTVEQLQKMLREMRGSITFKIVP [E22T]	-0.021 ± 0.038
VRLVQFQKNTDEPMGITLKMNVLNHCIVARIMHGGMIHRQGTLHVGDEIREINGISVANQTVEQLQKMLREMRGSITFKIVP [E22V]	-0.079 ± 0.027
VRLVQFQKNTDEPMGITLKMNWLNHCIVARIMHGGMIHRQGTLHVGDEIREINGISVANQTVEQLQKMLREMRGSITFKIVP [E22W]	-0.138 ± 0.033
VRLVQFQKNTDEPMGITLKMNYLNHCIVARIMHGGMIHRQGTLHVGDEIREINGISVANQTVEQLQKMLREMRGSITFKIVP [E22Y]	0.028 ± 0.066
VRLVQFQKNTDEPMGITLKMNEANHCIVARIMHGGMIHRQGTLHVGDEIREINGISVANQTVEQLQKMLREMRGSITFKIVP [L23A]	0.039 ± 0.028
VRLVQFQKNTDEPMGITLKMNECNHCIVARIMHGGMIHRQGTLHVGDEIREINGISVANQTVEQLQKMLREMRGSITFKIVP [L23C]	0.013 ± 0.035
VRLVQFQKNTDEPMGITLKMNEENHCIVARIMHGGMIHRQGTLHVGDEIREINGISVANQTVEQLQKMLREMRGSITFKIVP [L23E]	0.086 ± 0.028
VRLVQFQKNTDEPMGITLKMNEFNHCIVARIMHGGMIHRQGTLHVGDEIREINGISVANQTVEQLQKMLREMRGSITFKIVP [L23F]	-0.04 ± 0.049
VRLVQFQKNTDEPMGITLKMNEGNHCIVARIMHGGMIHRQGTLHVGDEIREINGISVANQTVEQLQKMLREMRGSITFKIVP [L23G]	0.033 ± 0.021

Variant	abundance fitness
VRLVQFQKNTDEPMGITLKMNEHNHCIVARIMHGGMIHRQGTLHVGDEIREINGISVANQTVEQLQKMLREMRGSITFKIVP [L23H]	0.028 ± 0.049
VRLVQFQKNTDEPMGITLKMNEINHCIVARIMHGGMIHRQGTLHVGDEIREINGISVANQTVEQLQKMLREMRGSITFKIVP [L23I]	0.054 ± 0.057
VRLVQFQKNTDEPMGITLKMNEKNHCIVARIMHGGMIHRQGTLHVGDEIREINGISVANQTVEQLQKMLREMRGSITFKIVP [L23K]	0.005 ± 0.035
VRLVQFQKNTDEPMGITLKMNENNHCIVARIMHGGMIHRQGTLHVGDEIREINGISVANQTVEQLQKMLREMRGSITFKIVP [L23N]	-0.038 ± 0.051
VRLVQFQKNTDEPMGITLKMNEPNHCIVARIMHGGMIHRQGTLHVGDEIREINGISVANQTVEQLQKMLREMRGSITFKIVP [L23P]	-0.073 ± 0.036
VRLVQFQKNTDEPMGITLKMNEQNHCIVARIMHGGMIHRQGTLHVGDEIREINGISVANQTVEQLQKMLREMRGSITFKIVP [L23Q]	0.043 ± 0.035
VRLVQFQKNTDEPMGITLKMNERNHCIVARIMHGGMIHRQGTLHVGDEIREINGISVANQTVEQLQKMLREMRGSITFKIVP [L23R]	0.046 ± 0.022
VRLVQFQKNTDEPMGITLKMNESNHCIVARIMHGGMIHRQGTLHVGDEIREINGISVANQTVEQLQKMLREMRGSITFKIVP [L23S]	0.028 ± 0.029
VRLVQFQKNTDEPMGITLKMNETNHCIVARIMHGGMIHRQGTLHVGDEIREINGISVANQTVEQLQKMLREMRGSITFKIVP [L23T]	0.044 ± 0.037
VRLVQFQKNTDEPMGITLKMNEVNHCIVARIMHGGMIHRQGTLHVGDEIREINGISVANQTVEQLQKMLREMRGSITFKIVP [L23V]	0.012 ± 0.025
VRLVQFQKNTDEPMGITLKMNEWNHCIVARIMHGGMIHRQGTLHVGDEIREINGISVANQTVEQLQKMLREMRGSITFKIVP [L23W]	0.007 ± 0.026
VRLVQFQKNTDEPMGITLKMNEYNHCIVARIMHGGMIHRQGTLHVGDEIREINGISVANQTVEQLQKMLREMRGSITFKIVP [L23Y]	0.128 ± 0.043
VRLVQFQKNTDEPMGITLKMNELAHCIVARIMHGGMIHRQGTLHVGDEIREINGISVANQTVEQLQKMLREMRGSITFKIVP [N24A]	-0.14 ± 0.023
VRLVQFQKNTDEPMGITLKMNELCHCIVARIMHGGMIHRQGTLHVGDEIREINGISVANQTVEQLQKMLREMRGSITFKIVP [N24C]	-0.159 ± 0.033
VRLVQFQKNTDEPMGITLKMNELDHCIVARIMHGGMIHRQGTLHVGDEIREINGISVANQTVEQLQKMLREMRGSITFKIVP [N24D]	-0.024 ± 0.033
VRLVQFQKNTDEPMGITLKMNELEHCIVARIMHGGMIHRQGTLHVGDEIREINGISVANQTVEQLQKMLREMRGSITFKIVP [N24E]	-0.065 ± 0.026
VRLVQFQKNTDEPMGITLKMNELFHCIVARIMHGGMIHRQGTLHVGDEIREINGISVANQTVEQLQKMLREMRGSITFKIVP [N24F]	-0.252 ± 0.045
VRLVQFQKNTDEPMGITLKMNELGHCIVARIMHGGMIHRQGTLHVGDEIREINGISVANQTVEQLQKMLREMRGSITFKIVP [N24G]	0.023 ± 0.019
VRLVQFQKNTDEPMGITLKMNELHHCIVARIMHGGMIHRQGTLHVGDEIREINGISVANQTVEQLQKMLREMRGSITFKIVP [N24H]	-0.006 ± 0.037
VRLVQFQKNTDEPMGITLKMNELIHCIVARIMHGGMIHRQGTLHVGDEIREINGISVANQTVEQLQKMLREMRGSITFKIVP [N24I]	-0.89 ± 0.11
VRLVQFQKNTDEPMGITLKMNELKHCIVARIMHGGMIHRQGTLHVGDEIREINGISVANQTVEQLQKMLREMRGSITFKIVP [N24K]	-0.032 ± 0.029

Source: the Human Domainome abundance scans (Beltran et al. 2025)
